{"source": "patent US20170349646A1", "binders": {"B1": {"name": "VHH antibody consisting of the amino acid sequence represented by SEQ ID NO: 08 (VHH)", "VHH": "EVQLVESGGGLVQAGDSLRLSCAASGRTFINLDMGWFRQPPGKEREYVAAITRNGAITSYADSAKGRFTISRDNAKNTVSLEMNSLKPEDTGVYYCAAYSISNYGSGWYKPDYWGQGAQVTVSS"}}, "biological_target": "recombinant nucleoprotein derived from influenza virus subtype A H1N1 (Sino Biological, 40205-[change]) (influenza virus subtype A H1N1)"}
{"binder": "B1", "values": [{"measurement": "EC50 (read off the curve)", "result": 0.2, "unit": "µg/mL"}]}
